The test addresses recombinant flagellin type B of P. aeruginosa (P. aeruginosa) (UniProt P72151).
Sequence of UniProt P72151 (P72151 whole entry): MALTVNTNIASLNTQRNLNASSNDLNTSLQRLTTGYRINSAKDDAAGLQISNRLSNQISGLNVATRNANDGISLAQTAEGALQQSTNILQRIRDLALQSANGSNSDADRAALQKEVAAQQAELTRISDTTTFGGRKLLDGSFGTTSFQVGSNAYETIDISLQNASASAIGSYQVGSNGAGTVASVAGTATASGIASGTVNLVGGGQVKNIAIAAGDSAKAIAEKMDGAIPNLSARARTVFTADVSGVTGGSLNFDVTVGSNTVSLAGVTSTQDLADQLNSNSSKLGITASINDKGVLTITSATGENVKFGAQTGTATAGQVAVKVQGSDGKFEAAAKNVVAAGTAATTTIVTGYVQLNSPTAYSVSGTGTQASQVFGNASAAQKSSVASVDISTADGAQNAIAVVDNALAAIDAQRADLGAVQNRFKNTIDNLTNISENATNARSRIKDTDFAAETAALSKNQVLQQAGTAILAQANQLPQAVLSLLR

On to “recombinant His-AprA (alkaline protease of P. aeruginosa) (from UniProt Q03023 10-479) (enzyme)”, for which the inhibition of flagellin-induced IL-8 production by HEK/TLR5 cells (30 ng/ml P. aeruginosa flagellin; the pair whose signalling is blocked is m6 with m7); AprA acts by degrading flagellin was 30 ng/mL.

Source of the values: publication PMC3161968.
